Three molecules from patent US20250090663A1 (published 2025) can be followed below.

Targets include Positive Control (1C8); Positive Control (8G1); Positive Control (27B3).
Common to all, as to assay: SPR (Carterra); apparent Kd
For test [1], the target named is T1, CD70 (antigen of the Carterra KD analysis) (UniProt P32970 39-193).
T1 chain: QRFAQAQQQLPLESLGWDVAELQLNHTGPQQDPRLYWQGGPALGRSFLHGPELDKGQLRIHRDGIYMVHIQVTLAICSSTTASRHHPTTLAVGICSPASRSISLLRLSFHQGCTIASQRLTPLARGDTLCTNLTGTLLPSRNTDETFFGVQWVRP

B1: H1-Fc (anti-CD70 VHH-Fc fusion polypeptide) (Fc fusion)
chain: QVQLQESGGGLVQAGGSLRLSCAAPRSIFSINAMGWYRQAPGKQRELVAAITSGGSPTYADSVKGRFTISRDNAKNTVYLQMNSLKAEDTAVYYCATGPYGLDNALDAWGQGTQVTVSS
For B1, the Kd in test [1] worked out at 2.73 nM.

B2: C1-Fc (anti-CD70 VHH-Fc fusion polypeptide) (Fc fusion)
chain: QVQLQESGGGLVQTGGSLRLACTASGFTFDDYAIAWFRQAPGKEREFVAAISWSGGTTHYADSVKGRFTISRDNAKNTLYLQMSSLKPEDTAVYFCAKSLRSSPSSRWFGSRGQGTQVTVSS
In the case of B2, in test [1], the Kd was 23.4 nM.

B3: CD70 (ligand)
chain: QRFAQAQQQLPLESLGWDVAELQLNHTGPQQDPRLYWQGGPALGRSFLHGPELDKGQLRIHRDGIYMVHIQVTLAICSSTTASRHHPTTLAVGICSPASRSISLLRLSFHQGCTIASQRLTPLARGDTLCTNLTGTLLPSRNTDETFFGVQWVRP
As to B3, the Kd was determined as 0.652 nM with Positive Control (1C8), 2.19 nM with Positive Control (8G1) and 0.634 nM in the test with Positive Control (27B3).
